Results on 13 molecules are retold here after US10766960 (dated 2020).

Residue numbers refer to the chain shown, from its start.

What all share (test): SPR
For orientation: Surface plasmon resonance follows binding to a sensor surface in real time, without labels.

Assay [1] deals with T1, FcgRIIb (human, UniProt P31994).
T1 chain: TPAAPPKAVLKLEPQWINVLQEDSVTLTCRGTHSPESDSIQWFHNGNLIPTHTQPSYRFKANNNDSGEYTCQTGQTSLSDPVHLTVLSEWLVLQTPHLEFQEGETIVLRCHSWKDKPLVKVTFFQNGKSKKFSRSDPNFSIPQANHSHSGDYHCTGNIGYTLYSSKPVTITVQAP

In assay [2] the target is T2, FcgRIIa H (human, UniProt P12318).
T2 chain: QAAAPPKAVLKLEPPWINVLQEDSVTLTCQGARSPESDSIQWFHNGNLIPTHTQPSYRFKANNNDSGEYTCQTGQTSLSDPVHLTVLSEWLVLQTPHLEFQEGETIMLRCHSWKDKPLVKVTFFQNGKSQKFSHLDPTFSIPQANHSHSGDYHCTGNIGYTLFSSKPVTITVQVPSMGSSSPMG

For assay [3], the target named is FcgRIIIa V (human, UniProt P08637).
FcgRIIIa V, sequence (P08637 17-208 F176V): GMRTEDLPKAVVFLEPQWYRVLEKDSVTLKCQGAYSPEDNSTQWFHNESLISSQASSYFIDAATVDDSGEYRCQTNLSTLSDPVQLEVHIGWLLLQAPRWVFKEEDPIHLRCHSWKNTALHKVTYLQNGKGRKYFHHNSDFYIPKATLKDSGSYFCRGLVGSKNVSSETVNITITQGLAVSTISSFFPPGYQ
Assay [4] addresses FcgRIIIa F (human, UniProt P08637).
Assay [5] deals with T3, FcgRIa (human, UniProt P12314).
T3 chain: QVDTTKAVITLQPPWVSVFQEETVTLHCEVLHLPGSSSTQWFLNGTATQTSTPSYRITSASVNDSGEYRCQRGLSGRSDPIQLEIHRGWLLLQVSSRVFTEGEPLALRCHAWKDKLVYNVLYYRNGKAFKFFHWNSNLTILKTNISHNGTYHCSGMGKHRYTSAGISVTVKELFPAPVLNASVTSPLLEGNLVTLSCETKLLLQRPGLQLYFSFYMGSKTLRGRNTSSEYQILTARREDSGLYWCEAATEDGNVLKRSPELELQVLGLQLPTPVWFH

Assay [6] concerns the target T4, FcgRIIa R (human, UniProt P12318).
T4 chain: T2 chain with H134R

As a reminder, the Kd is a measure of binding affinity in units of concentration. Higher therefore signals lower affinity.

FcgRIIIa F, sequence (P08637 17-208): as the sequence (P08637 17-208 F176V) above, with V160F counted along it

B1: H240-Kn210/H240-Hl076/L73-k0 (antibody)
chain 1: QDQLVQSGAEVKKPGASVKVSCKASGFNIKDTYIQWVRQAPGQGLEWMGRIDPLRKQTKYREKFEGRVTITADTSTNTAYMELSSLRSEDTAVYYCVRSGREFDYWGQGTLVTVSSASTKGPSVFPLAPSSKSTSGGTAALGCLVKDYFPEPVTVSWNSGALTSGVHTFPAVLQSSGLYSLSSVVTVPSSSLGTQTYICNVNHKPSNTKVDKKVEPKSCDKTHTCPPCPAPEIQWGPMVFLFPPKPKDTLMISRTPEVTCVVVDVSDEEPEVKFNWYVDGVEVHNAKTKPREEQYNATYRVVSVLTVLHQDWLNGKEYKCKVSNKALPAPIEKTISKAKGQPREPQVCTLPPSRDELTKNQVSLWCLVKGFYPSDIAVEWESNGQPENNYKTTPPVLDSDGSFFLYSKLTVDKSRWQQGNVFSCSVMHEALHNHYTQKSLSLSP
chain 2: QDQLVQSGAEVKKPGASVKVSCKASGFNIKDTYIQWVRQAPGQGLEWMGRIDPLRKQTKYREKFEGRVTITADTSTNTAYMELSSLRSEDTAVYYCVRSGREFDYWGQGTLVTVSSASTKGPSVFPLAPSSKSTSGGTAALGCLVKDYFPEPVTVSWNSGALTSGVHTFPAVLQSSGLYSLSSVVTVPSSSLGTQTYICNVNHKPSNTKVDKKVEPKSCDKTHTCPPCPAPELLGGPSVFLFPPKPKDTLMISRTPEVTCVVVDVSHEEPEVKFNWYVDGVEVHNAKTKPREEQYNSTYRVVSVLTVLHQDWLNGKEYKCKVSNDALPMPIEETISKAKGQPREPQVYTLPPSRCELTKNQVSLSCAVKGFYPSDIAVEWESNGQPENNYKTTPPVLDSDGSFFLVSKLTVDKSRWQQGNVFSCSVMHEALHNHYTQKSLSLSP
chain 3: DIQMTQSPSSLSASVGDRVTITCRASQDIHKYIAWYQQKPGQAPRLLIQYTSTLQPGVPSRFSGSGSGTDYTFTISSLQPEDIATYYCLQYEQLRTFGGGTKVEIKRTVAAPSVFIFPPSDEQLKSGTASVVCLLNNFYPREAKVQWKVDNALQSGNSQESVTEQDSKDSTYSLSSTLTLSKADYEKHKVYACEVTHQGLSSPVTKSFNRGEC
On to B1, for which the Kd in assay [1] was 4200 nM; in assay [2], 150 nM; in assay [3], 0.49 nM; in assay [4], 1.8 nM; in assay [5], 0.079 nM; in assay [6] it was 590 nM.

B2: H240-Kn200/H240-Hl076/L73-k0 (antibody)
chain 1: B1 chain 1 with I233S
chain 2: B1 chain 2
chain 3: B1 chain 3
In the case of B2, the Kd in assay [1] came to 6200 nM; in assay [2], 230 nM; in assay [3], 0.59 nM; in assay [4] it was 2.4 nM; in assay [5], 0.088 nM; in assay [6] it was 790 nM.

B3: H240-Kn223/H240-Hl068/L73-k0 (antibody)
chain 1: B1 chain 1 with I233G, Q234Y, E269D, A326D
chain 2: B1 chain 2 with M329K
chain 3: B1 chain 3
As to B3, the Kd in assay [1] was 280 nM; in assay [2], 94 nM; in assay [3] it was 0.57 nM; in assay [4], 4.2 nM; in assay [5], 0.13 nM; in assay [6], 62 nM.

B4: H240-Kn199/H240-Hl068/L73-k0 (antibody)
chain 1: B1 chain 1 with I233L, Q234Y, E269D, A326D
chain 2: B1 chain 2 with M329K
chain 3: B1 chain 3
For B4, the dissociation constant (Kd) in assay [1] came to 130 nM; in assay [2], 27 nM; in assay [3] it was 0.41 nM; in assay [4], 2.3 nM; in assay [5], 0.31 nM; in assay [6] it was 20 nM.

B5: H240-Kn217/H240-Hl068/L73-k0 (antibody)
chain 1: B1 chain 1 with I233D, Q234Y, E269D, A326D
chain 2: B1 chain 2 with M329K
chain 3: B1 chain 3
Turning to B5, the Kd in assay [1] turned out to be 120 nM; in assay [2], 76 nM; in assay [3], 0.38 nM; in assay [4] it was 2.4 nM; in assay [5], 0.17 nM; in assay [6], 28 nM.

B6: H240-Kn219/H240-Hl068/L73-k0 (antibody)
chain 1: B1 chain 1 with Q234Y, E269D, A326D
chain 2: B1 chain 2 with M329K
chain 3: B1 chain 3
On to B6, for which the Kd stood at 90 nM in assay [1]; 20 nM in assay [2]; 0.49 nM in assay [3]; 2.7 nM in assay [4]; 0.15 nM in assay [5]; 14 nM in assay [6].

B7: H240-Kn184/H240-Hl068/L73-k0 (antibody)
chain 1: B1 chain 1 with I233E, Q234Y, E269D, A326D
chain 2: B1 chain 2 with M329K
chain 3: B1 chain 3
For B7, the dissociation constant (Kd) in assay [1] was found to be 150 nM; in assay [2], 70 nM; in assay [3], 0.34 nM; in assay [4] it was 2.2 nM; in assay [5], 0.16 nM; in assay [6], 27 nM.

B8: H240-Kn202/H240-Hl076/L73-k0 (antibody)
chain 1: B1 chain 1 with I233E
chain 2: B1 chain 2
chain 3: B1 chain 3
For B8, the equilibrium dissociation constant (Kd) in assay [1] amounted to 4100 nM; in assay [2], 360 nM; in assay [3], 0.38 nM; in assay [4] it was 1.6 nM; in assay [5], 0.071 nM; in assay [6] it was 640 nM.

B9: H240-Kn203/H240-Hl068/L73-k0 (antibody)
chain 1: B1 chain 1 with I233F, Q234Y, E269D, A326D
chain 2: B1 chain 2 with M329K
chain 3: B1 chain 3
Turning to B9, the dissociation constant Kd in assay [1] came out at 270 nM; in assay [2], 49 nM; in assay [3], 0.76 nM; in assay [4] it was 3.4 nM; in assay [5], 0.43 nM; in assay [6], 46 nM.

B10: H240-Kn209/H240-Hl076/L73-k0 (antibody)
chain 1: B1 chain 1 with I233Q
chain 2: B1 chain 2
chain 3: B1 chain 3
As for B10, the dissociation constant (Kd) was found to be 7500 nM in assay [1]; 250 nM in assay [2]; 0.62 nM in assay [3]; 2.4 nM in assay [4]; 0.083 nM in assay [5]; 1200 nM in assay [6].

B11: H240-Kn201/H240-Hl076/L73-k0 (antibody)
chain 1: B1 chain 1 with I233F
chain 2: B1 chain 2
chain 3: B1 chain 3
Turning to B11, the dissociation constant (Kd) is 5400 nM in assay [1]; 140 nM in assay [2]; 0.36 nM in assay [3]; 1.8 nM in assay [4]; 0.058 nM in assay [5]; 720 nM in assay [6].

B12: H240-Kn214/H240-Hl076/L73-k0 (antibody)
chain 1: B1 chain 1 with I233G
chain 2: B1 chain 2
chain 3: B1 chain 3
With B12, the Kd in assay [1] was determined as 7100 nM; in assay [2], 330 nM; in assay [3] it was 0.8 nM; in assay [4], 3.4 nM; in assay [5], 0.061 nM; in assay [6], 1100 nM.

B13: H240-Kn212/H240-Hl076/L73-k0 (antibody)
chain 1: B1 chain 1 with I233T
chain 2: B1 chain 2
chain 3: B1 chain 3
As for B13, the Kd in assay [1] worked out at 5200 nM; in assay [2] it was 230 nM; in assay [3], 0.58 nM; in assay [4], 2.1 nM; in assay [5], 0.094 nM; in assay [6] it was 640 nM.
